# Data as given in patent US20240409620A1 (published 2024).
# Changes are numbered by the printed parent chain. Numbers in names are those of the source. Like-named read-outs stand apart in the source and are kept apart here.
# B1: 4F1En1 (VH-S75R) (antibody, V domains shown)
# VH: QVQLVESGGGVVQPGRSLRLSCAASGFSFYSYSVHWVRQAPGKGLEWVADVVYDGNHQHYTDSVKGRFTISRDTRKNTVYLQMGSLRAEDTALYYCTARSLVITLAGAGRDDYWGQGTTVTVSS
# VL: DIVMTQSPLSLPVTPGEPASISCRSSQSLLHSNGYTYLDWYLQKPGQSPQLLIFLGSSRASGVPDRFSGSGSGTDFTLKISRVEAEDVGVYYCVQDLQTSLTFGGGTKLEIKR
# B2: MEDI8897 (antibody, V domains shown)
# VH: QVQLVQSGAEVKKPGSSVMVSCQASGGLLEDYIINWVRQAPGQGPEWMGGIIPVLGTVHYGPKFQGRVTITADESTDTAYMELSSLRSEDTAMYYCATETALVVSETYLPHYFDNWGQGTLVTVSS
# VL: DIQMTQSPSSLSAAVGDRVTITCQASQDIVNYLNWYQQKPGKAPKLLIYVASNLETGVPSRFSGSGSGTDFSLTISSLQPEDVATYYCQQYDNLPLTFGGGTKVEIK
# B3: fully human monoclonal antibody 4F1 wild type (antibody, V domains shown)
# VH: B1 VH with Q1E, E6Q, Q13R, D62E, K65R, T69S, R75S, K76T, A88P, T119R
# VL: DIVMTQSPLSLSVTPGEPASISCKSSQSLLHSNGYTYLDWYLQKPGKSPQLLIFLGSSRASGVPARFSGSGSGTDFTLEISRVEAEDVGVYYCVQDLQTSLTFGGGTKVDIK
# B4: Palivizumab (SYNAGIS) (antibody, V domains shown)
# VH: QVTLRESGPALVKPTQTLTLTCTFSGFSLSTSGMSVGWIRQPPGKALEWLADIWWDDKKDYNPSLKSRLTISKDTSKNQVVLKVTNMDPADTATYYCARSMITNWYFDVWGAGTTVTVSS
# VL: DIQMTQSPSTLSASVGDRVTITCKCQLSVGYMHWYQQKPGKAPKLLIYDTSKLASGVPSRFSGSGSGTEFTLTISSLQPDDFATYYCFQGSGYPFTFGGGTKLEIK
# B5: 4F1 germline reversion (antibody, V domains shown)
# VH: B1 VH with R75S
# VL: B1 VL
# Tests used:
# [1] = target: T1, RSV/B/B9320 pre-fusion F protein (respiratory syncytial virus RSV/B/B9320); test: BLI
# [2] = target: T2, RSV/A/A2 pre-fusion F protein (respiratory syncytial virus RSV/A/A2, UniProt P03420 26-109); test: BLI
# [3] = target: T2, RSV/A/A2 pre-fusion F protein; test: ELISA
# [4] = target: T1, RSV/B/B9320 pre-fusion F protein; test: ELISA
# [5] = target: T2, RSV/A/A2 pre-fusion F protein; test: BLI; remark: listed apart in the source
Binder,Kd [1],Kd [2],EC50 [3],EC50 [4],Kd [5]
B1,0.0018 nM,< 0.001 nM,0.0245 mg/L,0.0565 mg/L,–
B2,0.66 nM,–,–,–,0.0172 nM
B3,0.0684 nM,–,–,0.111 mg/L,–
B4,0.362 nM,–,–,–,0.0407 nM
B5,–,–,0.0536 mg/L,0.0781 mg/L,–
